According to article PMC6905151:
pKd: −log10 of the molar value. Like-named read-outs stand apart in the source and are kept apart here. Blank lines part the entries; values can stand above or below the substance they belong to.

Key:
IgM (Homo sapiens) = IgM (Homo sapiens) (UniProt P01871); settings: cited from earlier work
[1] = target: IgM-Fc (Fcμ2-4) mutant M1 (K361D/D416R) (human); assay: SEC-MALS; SEC-MALLS on Superdex 200 Increase 5/150 with in-line miniDAWN detector and refractometer; peaks of the homodimeric Fcμ2-4 proteins from SEC
[2] = target: IgM-Fc (Fcμ2-4) mutant M2 (Q510R) (human); assay: as above
[3] = target: IgM-Fc (Fcμ2-4) mutant M3 (D340S/Q341G/D342S/T343S) (human); assay: as above
[4] = target: IgM-Fc (Fcμ2-4) wild-type, dimer of Cμ2-Cμ3-Cμ4 domains (human); assay: as above
[5] = target: IgM-Fc (Fcμ2-4) wild-type, dimer of Cμ2-Cμ3-Cμ4 domains (human); assay: SPR; Biacore T200, 25 °C, 0.01 M HEPES, 0.15 M NaCl, 0.005% Surfactant P20, pH 7.4; IgM, IgM-Fc, Fcμ3-4 or IgM-Fc mutants immobilised on CM5 by amine coupling; analyte sIgFcμR 0.25 μM to 12 μM; steady state, 1:1 binding model
[6] = target: purified serum IgM (whole pentameric IgM) (human); assay: as above
[7] = target: Fcμ3-4, dimer of Cμ3-Cμ4 domains (human); assay: as above
Sequence of Fcμ3-4, dimer of Cμ3-Cμ4 domains (human) (P01871 other isoform, or with tags, fused parts or gaps): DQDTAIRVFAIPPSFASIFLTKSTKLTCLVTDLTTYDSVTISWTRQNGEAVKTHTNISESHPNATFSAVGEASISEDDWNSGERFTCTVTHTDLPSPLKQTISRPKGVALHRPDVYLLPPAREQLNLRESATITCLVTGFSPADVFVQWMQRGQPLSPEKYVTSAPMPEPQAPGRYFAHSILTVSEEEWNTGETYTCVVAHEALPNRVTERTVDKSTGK

[8] = target: IgM-Fc (Fcμ2-4) wild-type, dimer of Cμ2-Cμ3-Cμ4 domains (human); assay: as above; remark: listed apart in the source
[9] = target: IgM-Fc (Fcμ2-4) mutant M3 (D340S/Q341G/D342S/T343S) (human); assay: as above

Sequence of IgM (Homo sapiens) (P01871 whole entry): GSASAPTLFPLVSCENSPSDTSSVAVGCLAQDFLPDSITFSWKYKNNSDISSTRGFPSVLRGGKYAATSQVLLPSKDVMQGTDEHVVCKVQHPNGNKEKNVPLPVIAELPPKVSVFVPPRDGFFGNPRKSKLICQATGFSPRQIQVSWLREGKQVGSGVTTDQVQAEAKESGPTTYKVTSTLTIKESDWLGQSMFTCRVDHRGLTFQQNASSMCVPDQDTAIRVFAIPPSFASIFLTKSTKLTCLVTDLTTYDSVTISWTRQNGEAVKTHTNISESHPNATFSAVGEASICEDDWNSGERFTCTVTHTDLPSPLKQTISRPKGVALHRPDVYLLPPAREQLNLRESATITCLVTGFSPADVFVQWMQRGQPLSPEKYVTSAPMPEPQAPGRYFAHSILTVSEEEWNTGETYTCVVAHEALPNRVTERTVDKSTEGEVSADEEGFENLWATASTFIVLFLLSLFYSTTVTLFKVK
Sequence of FcμR (cell surface) (O60667 17-390): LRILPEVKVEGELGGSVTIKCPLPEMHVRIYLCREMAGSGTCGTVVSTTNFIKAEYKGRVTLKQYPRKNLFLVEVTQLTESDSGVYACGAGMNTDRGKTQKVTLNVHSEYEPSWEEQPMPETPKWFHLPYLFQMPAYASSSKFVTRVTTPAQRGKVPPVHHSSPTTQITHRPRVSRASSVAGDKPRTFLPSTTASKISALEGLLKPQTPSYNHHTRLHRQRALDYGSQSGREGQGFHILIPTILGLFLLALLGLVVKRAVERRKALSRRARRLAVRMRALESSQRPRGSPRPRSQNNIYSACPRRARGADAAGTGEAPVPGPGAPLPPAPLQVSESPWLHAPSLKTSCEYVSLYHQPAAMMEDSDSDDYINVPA

Substance: FcμR (cell surface) (from UniProt O60667)
pKd (IgM (Homo sapiens)): 8.00

Substance: IgM-Fc (Fcμ2-4) mutant M1 (K361D/D416R) (domain or fragment)
stoichiometry N [1]: 2

Substance: IgM-Fc (Fcμ2-4) mutant M3 (D340S/Q341G/D342S/T343S) (domain or fragment)
stoichiometry N [3]: 2

Substance: soluble extracellular immunoglobulin-like domain of FcμR (domain or fragment)
pKd [5]: 5.94 | stoichiometry N (sIgFcμR per IgM-Fc homodimer) [5]: 2 | pKd [6]: 5.60 | stoichiometry N (sIgFcμR per IgM-Fc homodimer) [6]: 2 | stoichiometry N (sIgFcμR per IgM-Fc homodimer) [7]: 2 | pKd [8]: 5.74 | pKd [9]: 5.84

Next, values leading:

stoichiometry N [2]: 2
Substance: IgM-Fc (Fcμ2-4) mutant M2 (Q510R) (domain or fragment)

stoichiometry N [4]: 2
Substance: IgM-Fc (Fcμ2-4) wild-type, dimer of Cμ2-Cμ3-Cμ4 domains (domain or fragment)
